Source: US20120076796A1 (Ablynx, published 2012)
Values belong to the binder of their own block, whether it stands above or below them.

Columns and labels:
[1] = molecular target: T1, Recombinant human Angiopoietin-1 (R&D Systems Cat No 923-AN/CF) (human, UniProt Q15389 20-498, limits assumed); assay: phage ELISA: 10 ul monoclonal phage supernatant in 100 ul on 0.2 ug/ml coated Ang1, anti-M13-HRP, OD 450 nm
T1 construct: Bought reagent; also called Ang1; human Ang1
T1 sequence (looked up): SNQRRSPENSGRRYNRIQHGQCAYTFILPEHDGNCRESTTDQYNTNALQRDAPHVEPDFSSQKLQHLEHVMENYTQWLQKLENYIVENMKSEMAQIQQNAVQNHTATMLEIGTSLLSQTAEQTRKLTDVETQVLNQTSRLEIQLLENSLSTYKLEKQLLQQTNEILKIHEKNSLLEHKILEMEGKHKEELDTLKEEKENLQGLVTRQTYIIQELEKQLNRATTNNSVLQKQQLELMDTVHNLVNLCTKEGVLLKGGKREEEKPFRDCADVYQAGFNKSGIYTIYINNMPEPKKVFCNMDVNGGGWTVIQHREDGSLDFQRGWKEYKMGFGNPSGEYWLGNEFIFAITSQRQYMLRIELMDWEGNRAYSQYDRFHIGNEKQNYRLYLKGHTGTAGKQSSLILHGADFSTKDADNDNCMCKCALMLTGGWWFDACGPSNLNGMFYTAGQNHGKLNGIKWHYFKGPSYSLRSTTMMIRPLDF
Protocol: In order to determine binding specificity to Ang1, the clones are tested in an ELISA binding assay setup, using the monoclonal phage pools. Phage binding to Ang1 (R&D Systems Cat No 923-AN/CF, Lot No FHWO73091) is tested. Shortly, 0.2 ug/ml Ang1 is immobilized on Maxisorp ELISA plates (Nunc) and free binding sites are blocked using 4% Marvel skimmed milk in PBS. Next, 10 ul of supernatant from the monoclonal phage inductions of the different clones in 100 ul 2% Marvel PBS are allowed to bind to the immobilized antigen. […] Binding specificity is determined based on OD values compared to controls having received an irrelevant phage or no phage.

[2] = molecular target: T2, recombinant human Tie2/Fc Chimera (R&D Systems Cat No 313-TI, Lot No BKC06) (human, UniProt Q02763 23-745); assay: competition ELISA: 0.2 ug/ml Tie2/Fc pre-incubated with a dilution series of purified Nanobody, then on coated Ang1 (0.75 ug/ml); bound Tie2/Fc detected with anti-human IgG-HRP; blocked ligand: Ang1
T2 construct: Bought reagent; also called receptor; not shown: Fc portion of the bought chimera
Protocol: In order to determine the receptor blocking efficiency of clones tested positive for Ang1 competition, a dilution series of purified Nanobodies are tested in the ELISA-based ligand competition setup. In short, 0.75 ug/ml human. Ang1 (R&D Systems Cat No 923-AN/CF Lot No FHWO73091) is coated in 96 well Maxisorp microliter plates (Nunc) and blocked with 4% Marvel skimmed milk in PBS. In parallel, 0.2 ug/ml Tie2/Fc is incubated with a dilution series of purified Nanobodies. After 1 hour, the receptor-Nanobody pre-mixes are incubated 1 hour with the coated ligand. Bound Tie2/Fc is detected using HRP-conjugated goat anti-human IgG (Jackson Immunoresearch, Cat #109-035-098). Blocking activity is determined as loss of OD signal, as compared to wells where no P.E., or irrelevant P.E., has been added.

[3] = molecular target: T3, biotinylated rh Ang2 (R&D Systems Cat No BT623, Lot No BNR174091) (human, UniProt O15123 19-496, limits assumed, biotinylated (sites not given)); assay: competition ELISA: 0.05 ug/ml biotinylated Ang2 pre-incubated with a dilution series of purified Nanobody, then on coated Tie2/Fc (4 ug/ml); bound Ang2 detected with extravidin-HRP; blocked partner: Tie2/Fc
T3 construct: Bought reagent; also called biotinylated Ang2
T3 sequence (looked up): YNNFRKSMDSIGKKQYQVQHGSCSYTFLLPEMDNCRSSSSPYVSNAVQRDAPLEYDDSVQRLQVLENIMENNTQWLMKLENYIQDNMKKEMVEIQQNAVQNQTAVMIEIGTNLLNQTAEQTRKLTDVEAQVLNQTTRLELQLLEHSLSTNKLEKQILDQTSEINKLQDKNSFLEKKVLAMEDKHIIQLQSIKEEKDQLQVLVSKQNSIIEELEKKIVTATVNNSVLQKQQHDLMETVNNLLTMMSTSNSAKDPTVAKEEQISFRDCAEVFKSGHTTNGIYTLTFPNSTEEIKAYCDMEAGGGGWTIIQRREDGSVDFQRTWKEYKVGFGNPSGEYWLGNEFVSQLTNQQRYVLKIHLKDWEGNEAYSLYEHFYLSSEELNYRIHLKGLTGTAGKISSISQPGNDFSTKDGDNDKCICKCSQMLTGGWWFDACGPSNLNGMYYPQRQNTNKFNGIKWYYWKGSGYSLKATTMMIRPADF
Protocol: In order to determine the receptor blocking efficiency of clones tested positive for Ang2 blocking, a dilution series of purified Nanobodies are tested in the ELISA-based ligand competition setup. In short, 4 ug/ml human Tie2/Fc Chimera (R&D Systems Cat No 313-TI, Lot No BKC06)) is coated in 96 well Maxisorp microtiter plates (Nunc) and blocked with 4% Marvel skimmed milk in PBS. In parallel, 0.05 ug/ml biotinylated rh Ang2 (R&D Systems Cat No BT623, Lot No BNR174091) is incubated with a dilution series of purified Nanobodies. After 1 hour, the biotinylated Ang2-Nanobody pre-mixes are incubated 1 hour with the coated receptor. Bound biotinylated Ang2 is detected using HRP-conjugated extravidin (SIGMA E2886-1ML, 126K4801). Blocking activity is determined as loss of OD signal, as compared to wells where no P.E., or irrelevant P.E. has been added.

[4] = molecular target: T4, Recombinant human Angiopoietin-2 (R&D Systems Cat No 623-AN/CF) (human, UniProt O15123 19-496, limits assumed); assay: listed in the alignment of Ang2 binding Nanobodies; assay not told for this clone
T4 construct: Bought reagent; also called Ang2; human Ang2
T4 sequence (looked up): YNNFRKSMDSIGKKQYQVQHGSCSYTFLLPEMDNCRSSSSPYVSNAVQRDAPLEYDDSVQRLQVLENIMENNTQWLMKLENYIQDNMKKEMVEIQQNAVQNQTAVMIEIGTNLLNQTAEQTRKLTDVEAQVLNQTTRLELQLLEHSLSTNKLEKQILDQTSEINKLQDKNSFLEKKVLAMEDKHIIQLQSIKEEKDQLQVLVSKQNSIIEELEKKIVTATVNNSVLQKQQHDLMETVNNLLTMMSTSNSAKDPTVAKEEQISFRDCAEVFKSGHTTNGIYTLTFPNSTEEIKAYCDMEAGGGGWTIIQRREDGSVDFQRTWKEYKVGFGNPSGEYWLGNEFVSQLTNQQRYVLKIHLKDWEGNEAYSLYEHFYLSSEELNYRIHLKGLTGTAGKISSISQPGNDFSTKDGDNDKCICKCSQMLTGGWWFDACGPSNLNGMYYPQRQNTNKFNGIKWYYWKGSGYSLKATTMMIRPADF

[5] = molecular target: T2, recombinant human Tie2/Fc Chimera (R&D …); assay: phage ELISA: 10 ul monoclonal phage supernatant in 100 ul on 0.2 ug/ml coated Tie2/Fc, anti-M13-HRP, OD 450 nm
Protocol: In order to determine binding specificity to Tie2, the clones are tested in an ELISA binding assay setup, using the monoclonal phage pools. Phage binding to Tie2/Fc Chimera (R&D Systems Cat No 313-TI, Lot No BKC06) is tested. Shortly, 0.2 ug/ml receptor is immobilized on Maxisorp ELISA plates (Nunc) and free binding sites are blocked using 4% Marvel skimmed milk in PBS. Next, 10 ul of supernatant from the monoclonal phage inductions of the different clones in 100 ul 2% Marvel PBS are allowed to bind to the immobilized antigen. […] Binding specificity is determined based on OD values compared to controls having received no phage and to controls where in a similar ELISA binding assay the same monoclonal phage are tested for binding to 0.2 ug/ml of immobilized human IgG and 0.2 ug/ml of rh B7.2/Fc.

T2 sequence (Q02763 23-745, change not shown): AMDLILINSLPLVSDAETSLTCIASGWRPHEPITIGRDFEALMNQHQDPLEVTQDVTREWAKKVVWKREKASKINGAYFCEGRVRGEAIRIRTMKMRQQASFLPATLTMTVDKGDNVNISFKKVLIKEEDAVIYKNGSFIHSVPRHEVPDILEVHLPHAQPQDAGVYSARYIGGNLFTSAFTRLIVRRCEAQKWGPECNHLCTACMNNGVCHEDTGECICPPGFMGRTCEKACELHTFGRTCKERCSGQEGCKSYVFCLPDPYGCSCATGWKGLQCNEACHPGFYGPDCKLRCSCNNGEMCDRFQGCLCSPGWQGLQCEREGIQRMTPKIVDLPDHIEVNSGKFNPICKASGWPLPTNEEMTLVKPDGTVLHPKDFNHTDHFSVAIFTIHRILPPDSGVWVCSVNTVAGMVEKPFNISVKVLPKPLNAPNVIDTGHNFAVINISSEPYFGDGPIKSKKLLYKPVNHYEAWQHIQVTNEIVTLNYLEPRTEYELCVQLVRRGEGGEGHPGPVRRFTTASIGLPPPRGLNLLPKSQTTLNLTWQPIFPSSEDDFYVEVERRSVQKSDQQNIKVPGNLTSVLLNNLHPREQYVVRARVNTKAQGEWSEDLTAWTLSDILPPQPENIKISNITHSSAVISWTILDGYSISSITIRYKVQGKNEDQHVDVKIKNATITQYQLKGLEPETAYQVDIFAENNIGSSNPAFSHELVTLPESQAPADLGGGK

binding result [1]: binds
B1: 173-H9 (VHH)
VHH: EVQLVESGGGLVQPGGSLRLSCAASGFTLSGNWMYWLRQAPGKGLEWISTITPRGLTAYADSVKGRFTISRDIAENTLYLQMNSLKSGDTAVYYCARDKTGERRGQGTQVTVSS
notes: Nanobody

IC50 (read off the curve) [2]: ~3 nM
B2: 162-E9 (VHH)
VHH: EVQLVESGGGLVQPGGSLRLSCAASGFTLDDYAIGWFRQAPGKEREAVSCISSVDGSTHYADSVKGRFTISRDNAKDTVYLQMNSLKPEDTAAYYCAVQGYSGGYYYTCEDSADFGFWGQGTQVTVSS
notes: Nanobody

IC50 (read off the curve) [3]: ~4 nM
B3: 166-H4 (VHH)
VHH: EVQLVESGGDLVQAGGSLRLSCAASGFTFGDFTIGWFRQAPGKEREGVSCINTGDGSTNYAESVKGRFTISSDNAKNTVYLQMNSLKPEDTAVYYCALDQAPMWSSWSAPYEYDYWGQGTQVTVSS
notes: Nanobody

binding result [4]: binds
B4: 166-H5 (VHH)
VHH: EVQLVESGGGLVQAGGSLSLACVVSGRFSRINSMAWSRQVPGNARELVASVTSGGYTNYVDSVKGRFTISRDNAKNAIYLQMNSLKSEDTAVYYCNARVVVRTAHGFEDNYWGQGTQVTVSS

binding result [1]: binds
B5: 185-H5 (VHH)
VHH: EVQLVESGGGLVQPGGSLRLSCAASGFTLDYYAIGWFRQAPGKEREGVSYISSSDGRTYYADSVKGRFTISRDNAKNTVYLQMNSLKPEDTAVYYCATDLSGRGDVSEYEYDYWGQGTQVTVSS
notes: Nanobody

binding result [1]: binds
B6: 184-B6 (VHH)
VHH: EVQLVESGGGLVQPGGSLRLSCAASGFTFSNYAMTWVRQAPGKGLEWVSDISWDGDITTYAASVKGRFTISRDNAKKTLYLQMNSLKPEDSAVYYCNTYGYDSGRYYSYWGQGTQVTVSS
notes: Nanobody

IC50 (read off the curve) [2]: ~3 nM
B7: 162-E1 (VHH)
VHH: EVQLVESGGGLVQAGGSLRLSCAASGSIFSINAMGWYQQAPGKQRELVAFITSVGTTNYADSVKGRFIISRDNAKNTVYLQMNSLKPEDTAVYYCAADLHYSGPNYWGQGTQVTVSS
notes: Nanobody; Footnote: q in FR2 of 162-E1 from an Amber stop codon

binding result [5]: binds
B8: 162-F3 (VHH)
VHH: EVQLVESGGGLVQAGDSLRLSCTTSGRTFSDDTMGWFRQAPRKEREFVAAILWDSIKTYYADSVKGRFTISRDNAKNTVYLQMDSLKPEDTAVYYCAATPTAYGTDWYRNNYHYWGQGTQVTVSS
notes: Nanobody
